Key:
[1] = molecular target: T1, POLR2G (human, UniProt P62487 1-172); assay: ELISA; no detectable binding, up to 200 nM; 100 mM K+; ELISA: oligos folded in Tris-HCl pH 7.4, 100 mM KCl; ELISA buffer 100 mM KCl, 50 mM KH2PO4 pH 7.4, 3% BSA block, 1 h (room temperature stated for coating and bl)
[2] = molecular target: T1, POLR2G; assay: ELISA; apparent Kd; 100 mM K+; ELISA: oligos folded in Tris-HCl pH 7.4, 100 mM KCl; ELISA buffer 100 mM KCl, 50 mM KH2PO4 pH 7.4, 3% BSA block, 1 h (room temperature stated for coating and bl)

B1: HS2_G4_bMut (ssDNA)
DNA: CCATAATGCCAAGCTTGAGCACTGATTCCGACACTAGACCT
B1: no binding [1].

B2: HS-40_G4_aWT (structured_DNA)
DNA: TGGGGGTGGAGGTGGGACAAGGGAAAGGGGTGA
B2 gave a Kd [2] of 52.8 nM.

B3: HS2_G4_WT (bWT) (structured_DNA)
DNA: CCAGAAGCGGGGGTGGGGCACTGACCCCGACAGGGGCCT
In the case of B3, the Kd [2] is reported as 48.3 nM.

B4: HS-40_G4_aMut (ssDNA)
DNA: TGTGTGTGGATGTGTGACAAGTGAAATGTGTGA
B4: no binding [1].

Reference: PMC12139101, “DNA G-quadruplex structures act as functional elements in α- and β-globin enhancers”
